Source: patent US20210054094A1 (Hoffmann-La Roche, published 2021)
Positions count from the first letter of the chain named.

B1: P1AE5707 (antibody, V domains shown)
VH: EVQLLESGGGLVQPGGSLRLSCAASGFTFSKYAMAWVRQAPGKGLEWVASISTGGVNTYYRDSVKARFTISRDNSKNTLYLQMNSLRAEDTAVYYCATHTGDYFDYWGQGTMVTVSS
VL: DIVMTQSPDSLAVSLGERATINCRASQSVSISGINLMNWYQQKPGQQPKLLIYHASILASGVPDRFSGSGSGTDFTLTISSLQAEDVAVYYCQQTRESPLTFGQGTRLEIK
B2: P1AE5706 (antibody, V domains shown)
VH: ELQLEQSGGGLVQPGGSLTLSCAASGFTFSKYAMAWVRQAPTKGLEWVASISTGGVNTYYRDSVKARFTISRDNAKNTQYLQMDSLRSEDTATYYCATHTGDYFDYWGQGVMVTVSS
VL: DIVLTQSPALAVSPGQRATISCRASQSVSISGINLMNWYQQKPGQQPKLLIYHASILASGIPTRFSGSGSGTDFTLTIDPVQADDIATYYCQQTRESPLTFGSGTNLEIK
B3: P1AE5733 (antibody, V domains shown)
VH: EVQLVESGGGLVQPGRSLKLSCAASGFSFSNYGMAWVRQAATKGLEWVASISTGGGNTYYRDSVKGRFIVSRDNAKNTQYLQMDSLRSEDTATYYCTRHDRGGLYWGQGVMVTVSS
VL: DIVMTQAPLSVSVTPGESASISCRSSKSLLHSNGITYVYWYFQKPGKSPQVLIYRMSNLASGVPDRFSGSGSETDFTLKISRVEAEDVGIYHCGQLLENPYTFGAGTELELK
B4: P1AE5746 (antibody, V domains shown)
VH: QVQLVESGGGVVQPGRSLRLSCAASGFSFSNYGMAWVRQAPGKGLEWVASISTGGGNTYYADSVKGRFTISRDNSKNTLYLQMNSLRAEDTAVYYCTRHDRGGLYWGQGTMVTVSS
VL: DIVMTQSPLSLPVTPGEPASISCRSSKSLLHSNGITYVYWYLQKPGQSPQLLIYRMSNRASGVPDRFSGSGSGTDFTLKISRVEAEDVGVYHCGQLLENPYTFGQGTKLEIK
B5: P1AE5743 (antibody, V domains shown)
VH: B4 VH with Q1E, A61R, S75A
VL: EIVLTQSPGTLSLSPGERATLSCRASKSLLHSNGITYVYWYQQKPGQAPRLLIYRMSNLASGIPDRFSGSGSGTDFTLTISRLEPEDFAVYHCGQLLENPYTFGQGTKLEIK
B6: P1AE5742 (antibody, V domains shown)
VH: B4 VH with Q1E, A61R, S75A
VL: DIVMTQSPDSLAVSLGERATINCKSSKSLLHSNGITYVYWYQQKPGQPPKLLIYRMSNLASGVPDRFSGSGSGTDFTLTISSLQAEDVAVYHCGQLLENPYTFGQGTKLEIK
B7: P1AE5750 (antibody, V domains shown)
VH: B4 VH with Q1E, S75A
VL: B4 VL with L51V, R59L
B8: P1AE5763 (antibody, V domains shown)
VH: B4 VH with Q1E, V11L, R16G, S75A
VL: B6 VL
B9: P1AE5747 (antibody, V domains shown)
VH: B4 VH
VL: B6 VL
B10: P1AE5756 (antibody, V domains shown)
VH: B4 VH with Q1E, V11L, R16G, A61R, S75A
VL: B4 VL with Q47K, L51V, R59L
B11: P1AE5751 (antibody, V domains shown)
VH: B4 VH with Q1E, S75A
VL: B4 VL with Q47K, L51V, R59L
B12: P1AE5755 (antibody, V domains shown)
VH: B4 VH with Q1E, V11L, R16G, A61R, S75A
VL: B4 VL with L51V, R59L
B13: P1AE5753 (antibody, V domains shown)
VH: B4 VH with Q1E, S75A
VL: B6 VL
B14: P1AE5759 (antibody, V domains shown)
VH: B4 VH with Q1E, V11L, R16G, A61R, S75A
VL: B5 VL
B15: P1AE5738 (antibody, V domains shown)
VH: B4 VH with A61R
VL: B5 VL
B16: P1AE5754 (antibody, V domains shown)
VH: B4 VH with Q1E, S75A
VL: B5 VL
B17: P1AE5764 (antibody, V domains shown)
VH: B4 VH with Q1E, V11L, R16G, S75A
VL: B5 VL
B18: P1AE5758 (antibody, V domains shown)
VH: B4 VH with Q1E, V11L, R16G, A61R, S75A
VL: B6 VL
B19: P1AE5752 (antibody, V domains shown)
VH: B4 VH with Q1E, S75A
VL: B4 VL
B20: P1AE5761 (antibody, V domains shown)
VH: B4 VH with Q1E, V11L, R16G, S75A
VL: B4 VL with Q47K, L51V, R59L
B21: P1AE5760 (antibody, V domains shown)
VH: B4 VH with Q1E, V11L, R16G, S75A
VL: B4 VL with L51V, R59L
B22: P1AE5749 (antibody, V domains shown)
VH: B4 VH
VL: B5 VL
B23: P1AE5762 (antibody, V domains shown)
VH: B4 VH with Q1E, V11L, R16G, S75A
VL: B4 VL
B24: P1AE5757 (antibody, V domains shown)
VH: B4 VH with Q1E, V11L, R16G, A61R, S75A
VL: B4 VL
B25: P1AE5737 (antibody, V domains shown)
VH: B4 VH with A61R
VL: B6 VL
B26: 10B10-TCB (bispecific antibody)
light 1: DIQLTQSPHSLSASLGETVSIECLASEGISNYLAWFHQKPGKSPQLLIYYASSLQDGVPSRFSGSGSGTQYSLKISNMQPEDEGVYYCQQGYKYPLTFGSGTKLEIKRTVAAPSVFIFPPSDRKLKSGTASVVCLLNNFYPREAKVQWKVDNALQSGNSQESVTEQDSKDSTYSLSSTLTLSKADYEKHKVYACEVTHQGLSSPVTKSFNRGEC
light 2: EVQLLESGGGLVQPGGSLRLSCAASGFTFSTYAMNWVRQAPGKGLEWVSRIRSKYNNYATYYADSVKGRFTISRDDSKNTLYLQMNSLRAEDTAVYYCVRHGNFGNSYVSWFAYWGQGTLVTVSSASVAAPSVFIFPPSDEQLKSGTASVVCLLNNFYPREAKVQWKVDNALQSGNSQESVTEQDSKDSTYSLSSTLTLSKADYEKHKVYACEVTHQGLSSPVTKSFNRGEC
heavy 1: EVQLVESGGGLVQPGRSMKLSCAASGFTFTNFYMAWVRQAPTKALEWVASINTGGGYTYYRDSVKGRFTVSRDNTRSTLYLQMDSLRSEETATYYCARHLTYYGRYYYFDYWGQGVMVTVSSASTKGPSVFPLAPSSKSTSGGTAALGCLVEDYFPEPVTVSWNSGALTSGVHTFPAVLQSSGLYSLSSVVTVPSSSLGTQTYICNVNHKPSNTKVDEKVEPKSCDKTHTCPPCPAPEAAGGPSVFLFPPKPKDTLMISRTPEVTCVVVDVSHEDPEVKFNWYVDGVEVHNAKTKPREEQYNSTYRVVSVLTVLHQDWLNGKEYKCKVSNKALGAPIEKTISKAKGQPREPQVCTLPPSRDELTKNQVSLSCAVKGFYPSDIAVEWESNGQPENNYKTTPPVLDSDGSFFLVSKLTVDKSRWQQGNVFSCSVMHEALHNHYTQKSLSLSPGK
heavy 2: not shown
B27: B72-TCB (bispecific antibody, human IgG1, kappa, L234A L235A)
heavy 1: not shown
light 1: B26 light 2 with L5V, S30N, S49A, D64A, T80S, R89K, A90T, V99A
heavy 2: QVQLVQSGAEVKKPGASVKVSCKASGYSFTGYTMNWVRQAPGQGLEWMGLINPYNSDTNYAQKLQGRVTMTTDTSTSTAYMELRSLRSDDTAVYYCARVALRVALDYWGQGTLVTVSSASTKGPSVFPLAPSSKSTSGGTAALGCLVEDYFPEPVTVSWNSGALTSGVHTFPAVLQSSGLYSLSSVVTVPSSSLGTQTYICNVNHKPSNTKVDEKVEPKSCDKTHTCPPCPAPEAAGGPSVFLFPPKPKDTLMISRTPEVTCVVVDVSHEDPEVKFNWYVDGVEVHNAKTKPREEQYNSTYRVVSVLTVLHQDWLNGKEYKCKVSNKALGAPIEKTISKAKGQPREPQVCTLPPSRDELTKNQVSLSCAVKGFYPSDIAVEWESNGQPENNYKTTPPVLDSDGSFFLVSKLTVDKSRWQQGNVFSCSVMHEALHNHYTQKSLSLSPGK
light 2: DIQMTQSPSSLSASVGDRVTITCKASQNVATHVGWYQQKPGKAPKRLIYSASYRYSGVPSRFSGSGSGTEFTLTISNLQPEDFATYYCQQYNRYPYTFGQGTKLEIKRTVAAPSVFIFPPSDRKLKSGTASVVCLLNNFYPREAKVQWKVDNALQSGNSQESVTEQDSKDSTYSLSSTLTLSKADYEKHKVYACEVTHQGLSSPVTKSFNRGEC

The binders below were run against T1, human GPRC5D (human, UniProt Q9NZD1 1-345) (assay: cell-based or functional assay).
T1 sequence (Q9NZD1 whole entry): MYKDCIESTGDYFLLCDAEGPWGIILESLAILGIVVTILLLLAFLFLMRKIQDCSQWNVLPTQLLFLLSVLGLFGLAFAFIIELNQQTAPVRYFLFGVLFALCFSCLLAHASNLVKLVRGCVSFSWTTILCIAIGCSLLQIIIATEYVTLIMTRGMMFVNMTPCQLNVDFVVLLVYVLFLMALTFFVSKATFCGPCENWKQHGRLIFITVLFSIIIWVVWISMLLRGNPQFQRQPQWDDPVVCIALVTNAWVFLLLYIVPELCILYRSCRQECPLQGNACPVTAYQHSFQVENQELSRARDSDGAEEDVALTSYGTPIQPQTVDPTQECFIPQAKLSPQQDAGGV

| Binder | CAR-J2 EC50 (PGLALA-CAR-J activation, L363 target cells) |
| --- | --- |
| B1 | 0.0424 µg/mL |
| B2 | 0.0039 µg/mL |

Target: T1, human GPRC5D
Assay: cell-based or functional assay
Remark: another data set of the same source

| Binder | CAR-J2 EC50 (PGLALA-CAR-J activation, L363 target cells) |
| --- | --- |
| B3 | 0.00265 µg/mL |
| B4 | 0.514 µg/mL |
| B5 | 0.583 µg/mL |
| B6 | 0.0619 µg/mL |
| B7 | 0.0206 µg/mL |
| B8 | 0.00547 µg/mL |
| B9 | 0.183 µg/mL |
| B10 | 0.17 µg/mL |
| B11 | 0.00644 µg/mL |
| B12 | 0.152 µg/mL |
| B13 | 0.03 µg/mL |
| B14 | 0.0157 µg/mL |
| B15 | 0.397 µg/mL |
| B16 | 0.00889 µg/mL |
| B17 | 0.0782 µg/mL |
| B18 | 0.19 µg/mL |
| B19 | 0.509 µg/mL |
| B20 | 0.0746 µg/mL |
| B21 | 0.19 µg/mL |
| B22 | 0.0826 µg/mL |
| B23 | 0.0842 µg/mL |
| B24 | 0.145 µg/mL |
| B25 | 0.00295 µg/mL |

Target: T1, human GPRC5D
Assay: cell-based or functional assay
Remark: another data set of the same source

| Binder | EC50 of in vitro killing, AMO-1 cells | EC50 of in vitro killing, EJM cells | EC50 of in vitro killing, L363 cells | EC50 of in vitro killing, MOLP-2 cells | EC50 of in vitro killing, NCI-H929 cells | EC50 of in vitro killing, OPM-2 cells | EC50 of in vitro killing, RPMI cells |
| --- | --- | --- | --- | --- | --- | --- | --- |
| B26 | 0.084 nM | 0.079 nM | 0.034 nM | 0.16 nM | 0.056 nM | 0.028 nM | 0.965 nM |
| B27 | 0.109 nM | 0.06 nM | 0.058 nM | 0.124 nM | 0.058 nM | 0.171 nM | 0.193 nM |
